Experimental data taken from US20240002477A1 (UNIVERSITY OF CHICAGO, published 2024).

B1: S24-1345 (antibody, V domains shown)
VH: QLQLQESGPGLVKPSETLSLTCTVSGGSISSSSYYWGWIRQPPGKGLEWIGSIYYSGSTYYNPSLKSRVTISVDTSKNQFSLKLSSVTAADTAVYYCARRIRRPTSEVVITYVFDYWGQGTLVTVSS
VL: AIQLTQSPSSLSASVGDRVTITCRASQGISSALAWYQQKPGKAPKLLIYDASSLESGVPSRFSGSGSGTDFTLTISSLQPEDFATYYCQQFNSYLTFGGGTKVEIK
B2: S144-175 (antibody, V domains shown)
VH: QVQLVQSGAEVKKPGASVKVSCKASGYTFTGYYMHWVRQAPGQGLEWMGRINPNSGGTNFAQRFQGRVSMTRDTSISTAYMELSSLRSDDTAVYYCARGAKFEHLPFDIWGQGTMVTVSS
VL: QSMLTQPPSASGTPGQRVTISCSGSSSNIGSNYVYWYQQLPGTAPKLLIYRNNQRPSGVPDRFSGSKSGTSASLAISGLRSEDEADYYCAAWDDRRWVFGGGTKLTVL
notes: recombinant human IgG1
B3: S24-636 (antibody, V domains shown)
VH: EVQLVESGGGLVQPGGSLRLSCAASGFTLSSYWMSWVRQAPGKGLEWVANIKQDGSEKYYVDSVKGRFTISRDNAKNSLYLQMNSLRAEDTAVYYCARDLTATWFDPWGQGTLVTVSS
VL: QTVVTQEPSFSVSPGGTVTLTCGLSSGSVSTSYYPSWYQQTPGQAPRTLIYSTNKRSSGVPDRFSGSILGNKAALTITGAQADDESDYYCVLYMGSGMSVFGGGTKLTVL
B4: S24-1378 (antibody, V domains shown)
VH: EVQLVESGGGLVQPGGSLRLSCAASGFTVSSNYMSWVRQAPGKGLEWVSVIYSGGSTYYADSVKGRFTISRHNSKNTLYLQMNSLRAEDTAVYYCAREGYCTNGVCYRHAFDIWGQGTMVTVSS
VL: QTVVTQEPSFSVSPGGTVTLTCGLSSGSVSTSYYPSWYQQTPGQAPRTLIYSTNTRSSGVPDRFSGSILGNKAALTITGAQADDESDYYCVLYMGSGISVFGGGTKLTVL
notes: recombinant human IgG1
B5: S24-278 (antibody, V domains shown)
VH: QVQLVQSGAEVKKPGASVKVSCKASGYTFTGYYMHWVRQAPGQGLEWMGWINPNSGDTNYAQKFQGWVTMTRDTSLSTAYMELSRLKSDDTAVYYCARVGVGEYSGRHYYYYGMDVWGQGTTVTVSS
VL: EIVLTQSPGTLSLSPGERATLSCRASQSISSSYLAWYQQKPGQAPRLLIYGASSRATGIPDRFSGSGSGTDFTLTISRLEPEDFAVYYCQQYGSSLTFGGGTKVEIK
notes: recombinant human IgG1
B6: S144-208 (antibody, V domains shown)
VH: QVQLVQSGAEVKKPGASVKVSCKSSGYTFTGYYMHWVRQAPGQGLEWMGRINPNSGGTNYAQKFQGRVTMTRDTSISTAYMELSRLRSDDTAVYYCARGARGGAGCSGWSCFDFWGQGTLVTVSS
VL: QSALTQPRSVSGSPGQSVTISCTGTSSDVGGYKYVSWYQQHPGKAPKLMIYDVSKRPSGVPDRFSGSKSGNTASLTISGLQAEDEGDYYCCSYAGTYSLVFGGGTKVTV
notes: recombinant human IgG1
B7: S564-138 (antibody, V domains shown)
VH: QVLLVQSGAEVKKPGASVKVSCKASGYTFTGYYLHWVRQAPGQGLEWMGWINPISGGTNYAQNFQDRVTMTRDTSIITAYMELSRLRSDDTAVYYCARLAYYYDSSAYRGAFDIWGQGTMVTVSS
VL: QSALTQPASVSGSPGQSITISCTGTSSDVGGYNYVSWYQQHPGKAPKLMIYEVSNRPSGVSDRFSGSKSGNTASLTISGLQAEDEADYYCSSYTSSSTYVFGTGTKVTVL
notes: recombinant human IgG1
B8: S564-152 (antibody, V domains shown)
VH: QVQLVESGGGVVQPGRSLRLSCAASGFTFSYYGMHWVRQAPGKGLEWVAVIWYDGSNKHYADSVKGRFTISRDNSKNTLYLQMNSLRAEDTAVYYCAKNAAPYCSGGSCYGTYFDYWGQGTLVTVSS
VL: DIQMTQSPSSLSASVGDRVTITCQASQDINNYLNWYQQKPGKAPKLLIYDASNLETGVPSRFSGSGSGTDFTFTISSLQPEDIATYYCQQYDNVPPHTFGQGTKLEIK
notes: recombinant human IgG1
B9: S564-14 (antibody, V domains shown)
VH: EVQLVESGGGLVQPGGSLRLSCAASGLTFSSYWMSWARQAPGKGLEWVANIKKDGSEKYYVDSVKGRFTISRDNAKNSLYLQMNSLRVEDTAVYYCASEPPHYGGNSGAEYFQHWGQGTLVTVSS
VL: SYVLTQPPSVSVAPGKTARITCGGNNIGSKSVHWYQQRPGQAPVLVIYYDSDRPSGIPERFSGSNSGNTATLTISRVEAGDEADYYCQVWDSSSDHHYVFGTGTKVTVL
notes: recombinant human IgG1

What follows are binders tested against T1, SARS-CoV-2 ORF8 protein (SARS-CoV-2, UniProt P0DTC8 16-121) (assay: mAb table, Specificity column (recombinant IgG1; ELISA)).
T1 construct: domain: Ig-like domains; also called open reading frame 8
T1 sequence (P0DTC8 16-121, tags left off): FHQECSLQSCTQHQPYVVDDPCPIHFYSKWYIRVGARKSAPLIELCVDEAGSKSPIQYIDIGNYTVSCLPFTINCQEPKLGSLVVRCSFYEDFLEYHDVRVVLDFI
B1: binds. B2: binds. B3: binds. B4: binds. B5: binds. B6: binds.

What follows are binders tested against SARS-CoV-2 spike receptor-binding domain (SARS-CoV-2, UniProt P0DTC2 319-541) in the same assay as above.
B7: binds. B8: binds. B9: binds.
